Results: article PMC10397247

What was measured:
Experiment in all cases: two-hybrid library CCNG1;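 also: natural log of median RNA to DNA barcode read ratio; higher means stronger binding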
4H2931-bA = molecular target: T1, 4H2931-bA
T1 chain: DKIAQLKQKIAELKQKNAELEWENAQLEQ

4H235-bA = molecular target: T2, 4H235-bA
T2 chain: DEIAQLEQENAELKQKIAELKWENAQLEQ

4H2444-bA = molecular target: T3, 4H2444-bA
T3 chain: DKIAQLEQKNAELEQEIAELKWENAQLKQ

4H2518-bA = molecular target: T4, 4H2518-bA
T4 chain: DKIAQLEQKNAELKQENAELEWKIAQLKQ

4H3381-bA = molecular target: T5, 4H3381-bA
T5 chain: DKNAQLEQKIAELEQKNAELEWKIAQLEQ

4H454-bA = molecular target: T6, 4H454-bA
T6 chain: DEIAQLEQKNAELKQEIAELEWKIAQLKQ

4H331-bA = molecular target: T7, 4H331-bA
T7 chain: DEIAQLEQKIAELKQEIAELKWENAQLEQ

4H730-bA = molecular target: T8, 4H730-bA
T8 chain: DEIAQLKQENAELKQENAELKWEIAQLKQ

4H2859-bA = molecular target: T9, 4H2859-bA
T9 chain: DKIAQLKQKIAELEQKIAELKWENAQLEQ

4H2585-bA = molecular target: T10, 4H2585-bA
T10 chain: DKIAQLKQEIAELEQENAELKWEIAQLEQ

4H796-bA = molecular target: T11, 4H796-bA
T11 chain: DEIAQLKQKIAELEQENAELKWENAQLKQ

4H56-bA = molecular target: T12, 4H56-bA
T12 chain: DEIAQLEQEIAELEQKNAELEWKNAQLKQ

4H3041-bA = molecular target: T13, 4H3041-bA
T13 chain: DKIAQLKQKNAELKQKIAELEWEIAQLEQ

4H3364-bA = molecular target: T14, 4H3364-bA
T14 chain: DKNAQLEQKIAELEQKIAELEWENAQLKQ

4H575-bH = molecular target: T15, 4H575-bH
T15 chain: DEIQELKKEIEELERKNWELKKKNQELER

4H932-bA = molecular target: T16, 4H932-bA
T16 chain: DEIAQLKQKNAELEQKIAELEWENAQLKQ

4H2760-bA = molecular target: T17, 4H2760-bA
T17 chain: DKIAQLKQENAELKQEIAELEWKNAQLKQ

4H349-bA = molecular target: T18, 4H349-bA
T18 chain: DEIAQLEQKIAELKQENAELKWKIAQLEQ

4H949-bA = molecular target: T19, 4H949-bA
T19 chain: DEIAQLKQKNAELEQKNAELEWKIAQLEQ

4H3297-bA = molecular target: T20, 4H3297-bA
T20 chain: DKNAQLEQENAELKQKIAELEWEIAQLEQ

4H264-bA = molecular target: T21, 4H264-bA
T21 chain: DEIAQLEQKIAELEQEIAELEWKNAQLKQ

4H2839-bH = molecular target: T22, 4H2839-bH
T22 chain: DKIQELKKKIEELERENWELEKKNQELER

4H2915-bH = molecular target: T23, 4H2915-bH
T23 chain: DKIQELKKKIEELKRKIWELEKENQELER

P7SH = molecular target: T24, P7SH
T24 chain: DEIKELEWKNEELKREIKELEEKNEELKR

4H477-bH = molecular target: T25, 4H477-bH
T25 chain: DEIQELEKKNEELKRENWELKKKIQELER

4H3277-bH = molecular target: T26, 4H3277-bH
T26 chain: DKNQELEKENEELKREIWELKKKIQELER

4H338-bA = molecular target: T27, 4H338-bA
T27 chain: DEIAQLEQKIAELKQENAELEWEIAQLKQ

4H319-bH = molecular target: T28, 4H319-bH
T28 chain: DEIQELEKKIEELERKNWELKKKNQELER

4H2717-bH = molecular target: T29, 4H2717-bH
T29 chain: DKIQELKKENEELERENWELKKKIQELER

4H2692-bH = molecular target: T30, 4H2692-bH
T30 chain: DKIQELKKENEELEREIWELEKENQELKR

4H3057-bH = molecular target: T31, 4H3057-bH
T31 chain: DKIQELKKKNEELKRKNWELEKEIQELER

4H2588-bH = molecular target: T32, 4H2588-bH
T32 chain: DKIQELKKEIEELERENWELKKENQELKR

4H492-bH = molecular target: T33, 4H492-bH
T33 chain: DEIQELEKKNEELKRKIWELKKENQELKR

4H741-bH = molecular target: T34, 4H741-bH
T34 chain: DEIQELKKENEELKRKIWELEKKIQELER

4H40-bH = molecular target: T35, 4H40-bH
T35 chain: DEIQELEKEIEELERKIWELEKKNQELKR

DEIAQLEQENAELKQKIAELKWENAQLEQ [4H235-bA]
interaction score (4H2931-bA): -0.643 | interaction score (4H235-bA): 0.082 | interaction score (4H2444-bA): -0.488 | interaction score (4H2518-bA): -0.69 | interaction score (4H3381-bA): -0.985 | interaction score (4H454-bA): 0.0882 | interaction score (4H331-bA): -2 | interaction score (4H730-bA): -0.952 | interaction score (4H2859-bA): -0.319 | interaction score (4H2585-bA): -0.367 | interaction score (4H796-bA): -0.862 | interaction score (4H56-bA): -1.05 | interaction score (4H3041-bA): 0.563 | interaction score (4H3364-bA): -0.845 | interaction score (4H575-bH): -3.02 | interaction score (4H932-bA): -0.974 | interaction score (4H2760-bA): 1.96 | interaction score (4H349-bA): -0.682 | interaction score (4H949-bA): -0.885 | interaction score (4H3297-bA): -0.354 | interaction score (4H264-bA): -0.636

DKIQELKKEIEELERENWELKKENQELKR [4H2588-bH]
interaction score (4H2839-bH): 1.07 | interaction score (4H2915-bH): 1.07 | interaction score (P7SH): -0.241 | interaction score (4H477-bH): -0.292 | interaction score (4H3277-bH): -0.69 | interaction score (4H338-bA): 0.393 | interaction score (4H319-bH): 0.617 | interaction score (4H2717-bH): -0.116 | interaction score (4H2692-bH): 0.605 | interaction score (4H3057-bH): 0.192 | interaction score (4H2588-bH): 0.98 | interaction score (4H492-bH): -1.5 | interaction score (4H741-bH): 0.417 | interaction score (4H40-bH): -0.884
